From patent publication US20130295106A1 (ONCOMED PHARMACEUTICALS, published 2013) come the findings set out here.

Assay [1] concerns the target T1, recombinant FZD2 Fc protein (Biacore) (Homo sapiens (Human), UniProt Q14332 24-250, limits assumed).
T1 construct: also called Fzd Fc; not shown: Fc part, not described
Kind of assay: SPR, Biacore 2000; Fzd Fc immobilized on CM5 chip, IgG 100 to 0.78 nM in solution. How it is done:
(§1) The KDs of 18R8 and 18R5 antibodies were determined using the Biacore 2000 system from Biacore Lifescience (GE Healthcare). Specifically, purified anti-Fzd7 antibodies were serially diluted in 2-fold increments from 100 to 0.78 nM in HBS-P (0.01 M HEPES pH 7.4, 0.15 M NaCl, 0.005% v/v Surfactant P20). Each dilution was tested against recombinant Fzd Fc proteins immobilized onto a CM5 Biacore chip. The association and dissociation rates were measured and KD values determined using the Biaevaluation software program (Table 5, below).
For orientation: SPR reads the build-up and loss of mass on a sensor chip optically.

Assay [2] deals with T2, recombinant FZD1 Fc protein (Biacore) (Homo sapiens (Human), UniProt Q9UP38 70-321, limits assumed).
T2 construct: also called Fzd Fc; not shown: Fc part, not described
T2 sequence (Q9UP38 70-321 limits assumed): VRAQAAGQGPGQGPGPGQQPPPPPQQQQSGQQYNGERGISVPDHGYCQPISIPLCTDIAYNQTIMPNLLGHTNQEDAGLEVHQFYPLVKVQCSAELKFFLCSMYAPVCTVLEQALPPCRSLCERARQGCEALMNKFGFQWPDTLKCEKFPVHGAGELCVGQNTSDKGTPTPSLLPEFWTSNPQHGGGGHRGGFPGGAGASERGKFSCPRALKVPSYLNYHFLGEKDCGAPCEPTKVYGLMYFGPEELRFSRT
Described as above. The protocol: as §1

In assay [3] the target is T3, recombinant FZD7 Fc protein (Biacore) (Homo sapiens (Human), UniProt O75084 33-255, limits assumed).
T3 construct: also called Fzd Fc; not shown: Fc part, not described
The assay is described as above. The protocol: as §1

For a further assay, the target named is T4, FZD5-Fc (Homo sapiens (Human), UniProt Q13467 27-233, limits assumed).
T4 construct: also called recombinant FZD5 Fc protein; not shown: Fc part, not described
T4 sequence: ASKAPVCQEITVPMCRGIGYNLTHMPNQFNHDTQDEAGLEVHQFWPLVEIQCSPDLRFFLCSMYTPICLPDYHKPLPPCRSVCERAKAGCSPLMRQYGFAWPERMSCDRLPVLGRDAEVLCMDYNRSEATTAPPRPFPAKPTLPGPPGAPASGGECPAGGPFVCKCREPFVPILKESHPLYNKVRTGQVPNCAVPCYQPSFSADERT
The assay is described as above. How it is done: as §1

In assay [4] the target is T5, human FZD3 expressed on transfected HEK293 cells (human, UniProt Q9NPG1 23-666).
T5 sequence: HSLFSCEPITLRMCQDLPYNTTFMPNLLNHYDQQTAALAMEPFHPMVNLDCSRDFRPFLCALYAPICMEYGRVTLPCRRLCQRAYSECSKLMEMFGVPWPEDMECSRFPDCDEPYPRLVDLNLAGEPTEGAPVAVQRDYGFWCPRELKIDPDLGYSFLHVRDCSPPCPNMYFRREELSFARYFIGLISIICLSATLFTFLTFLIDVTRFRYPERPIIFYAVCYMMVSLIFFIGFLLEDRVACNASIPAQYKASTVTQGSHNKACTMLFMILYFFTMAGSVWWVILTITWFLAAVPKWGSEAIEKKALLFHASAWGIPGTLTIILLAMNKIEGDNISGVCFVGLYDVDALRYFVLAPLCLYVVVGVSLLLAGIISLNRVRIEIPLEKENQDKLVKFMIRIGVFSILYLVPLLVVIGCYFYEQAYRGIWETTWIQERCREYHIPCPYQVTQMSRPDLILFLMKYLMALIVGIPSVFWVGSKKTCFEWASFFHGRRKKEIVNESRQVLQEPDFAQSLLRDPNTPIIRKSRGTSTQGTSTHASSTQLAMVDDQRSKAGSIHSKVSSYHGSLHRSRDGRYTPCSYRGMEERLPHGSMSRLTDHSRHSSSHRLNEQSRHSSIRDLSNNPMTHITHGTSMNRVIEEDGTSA
The assay can be described thus: flow cytometry, HEK293 cells transiently co-transfected with FZD expression vector and GFP. The protocol: (§2) To measure antibody binding to FZD by flow cytometry HEK293 cells were co-transfected with FZD expression vectors and the transfection marker GFP. Twenty-four to forty-eight hours post-transfection, cells were collected in suspension and incubated on ice with anti-FZD antibodies (10 μg/ml unless otherwise indicated) or control IgG to detect background antibody binding. The cells were washed and primary antibodies detected with Fc domain-specific secondary antibodies conjugated to a fluorescent chromophore (e.g. phycoerythrin conjugated anti-human IgG). Labeled cells were then analyzed by flow cytometry to identify anti-FZD antibodies that specifically recognize cell surface expression of FZD protein. Monoclonal antibodies 18R5 and 18R8 recognized FZD on transfected cells. As shown in FIG. 1 and FIG. 2, both 18R8 and 18R5 bind to multiple FZD including FZD1, FZD2, FZD5, FZD7, and FZD8. To examine the relative ability of 18R8 and 18R5 to bind to each FZD protein, titration analysis was conducted wherein the amount of antibody in the binding reaction was varied (FIG. 2).
On the technique in general: A flow cytometer gives signals particle by particle.

The target of assay [5] is T6, human FZD6 expressed on transfected HEK293 cells (human, UniProt O60353 19-706).
T6 sequence: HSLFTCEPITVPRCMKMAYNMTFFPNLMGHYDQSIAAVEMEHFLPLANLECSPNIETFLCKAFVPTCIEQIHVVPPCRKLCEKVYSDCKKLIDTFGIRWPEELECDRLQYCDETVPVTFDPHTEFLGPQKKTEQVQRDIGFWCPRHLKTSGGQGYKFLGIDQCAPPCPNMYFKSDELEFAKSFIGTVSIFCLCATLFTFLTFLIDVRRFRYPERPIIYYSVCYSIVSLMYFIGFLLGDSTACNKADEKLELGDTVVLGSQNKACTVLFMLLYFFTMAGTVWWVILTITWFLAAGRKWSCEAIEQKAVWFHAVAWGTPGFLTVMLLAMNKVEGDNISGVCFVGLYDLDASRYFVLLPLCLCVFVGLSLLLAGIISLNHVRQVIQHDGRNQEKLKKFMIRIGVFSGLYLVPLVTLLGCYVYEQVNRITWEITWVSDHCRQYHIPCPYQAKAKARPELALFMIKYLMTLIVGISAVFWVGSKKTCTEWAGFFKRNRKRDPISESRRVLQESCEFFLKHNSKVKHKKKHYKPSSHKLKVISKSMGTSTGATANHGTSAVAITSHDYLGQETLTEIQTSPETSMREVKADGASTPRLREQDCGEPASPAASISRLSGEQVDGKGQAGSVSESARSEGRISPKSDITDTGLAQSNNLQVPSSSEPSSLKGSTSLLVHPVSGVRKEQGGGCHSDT
Described as above. The protocol: as §2

T1 sequence (Q14332 24-250 limits assumed): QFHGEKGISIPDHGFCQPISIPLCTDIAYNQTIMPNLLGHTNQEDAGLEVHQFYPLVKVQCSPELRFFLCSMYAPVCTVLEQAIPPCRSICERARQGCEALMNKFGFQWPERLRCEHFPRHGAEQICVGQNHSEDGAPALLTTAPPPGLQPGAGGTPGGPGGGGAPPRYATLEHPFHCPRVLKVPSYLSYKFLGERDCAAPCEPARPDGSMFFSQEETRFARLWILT

B1: 18R8 IgG antibody (human IgG2, lambda) (antibody, V domains shown)
VH: EVQLVESGGGLVQPGGSLRLSCAASGFTFSHYTLSWVRQAPGKGLEWVSVISGDGSYTYYADSVKGRFTISSDNSKNTLYLQMNSLRAEDTAVYYCARNFIKYVFANWGQGTLVTVSS
VL: DIELTQPPSVSVAPGQTARISCSGDKLGKKYASWYQQKPGQAPVLVIYEKDNRPSGIPERFSGSNSGNTATLTISGTQAEDEADYYCSSFAGNSLEVFGGGTKLTVLG
notes: Expressed in CHO cells, protein A purified; also called 18R8 IgG2 antibody; anti-FZD antibody 18R8
Broadly, the Kd is the constant that tells how readily two partners part at equilibrium. Consider B1, for which the Kd in assay [1] is 6.2 nM; in assay [2], 15.6 nM; in assay [3], 5.2 nM; with FZD5-Fc, 4.2 nM. The binding result in assay [4] and in assay [5] was “no binding (tested: 10 ug/ml)” each time.
